Test results: patent publication US20170015742A1 (published 2017)
One block for each binder: values may come before it.

Assays:
[1] = molecular target: T1, recombinant human VEGF165 (human, UniProt P15692 207-395); test: competition ELISA: DVD-Ig titrated against biotinylated hVEGF165 binding to coated hVEGFR2-Fc
T1 construct: also called hVEGF165; huVEGF-A165
Experimental: To identify molecules that could block the binding of hVEGF₁₆₅ to the hVEGF-R2 (KDR/Flk-1) receptor, a competition ELISA was performed. […] Plates were then washed four times with wash buffer (TBS, 0.05% Tween-20) and blocked with Superblock blocking buffer (Thermo Scientific, cat#37535). […] The pre-incubated sample/hVEGF₁₆₅ complex was added to the coated plate at 50 μL in duplicate and incubated for 30 minutes at 25° C. with shaking. Following incubation, plates were washed four times with wash buffer. Streptavidin-polyHRP-40 (Fitzgerald cal#65r-s104phrp) was diluted in assay diluent (10% Superblock containing 0.05% surfactamps) and added to plates (50 μL) for 45 minutes at 25° C. with shaking. Plates were washed four times with wash buffer and developed with the addition of Enhanced K-blue TMB substrate (Neogen cat#308177). The reaction was stopped with 2N sulfuric acid (VWR, cat# BDH3500-1) and the absorbance was read at 450 nm-570 nm. A decrease in observed optical density indicates the test molecule is blocking the hVEGF₁₆₅ binding to the hVEGF-R2-Fc. Data was analyzed using Softmax Pro 4.8 software and IC₅₀ values calculated using a sigmoidal dose response (variable slope) fit in GraphPad Prism 5.

[2] = molecular target: T1, recombinant human VEGF165; test: cell-based or functional assay
[3] = molecular target: T2, recombinant human PDGF-BB (human, UniProt P01127 82-190); test: cell-based or functional assay
T2 sequence (P01127 82-190 limits assumed): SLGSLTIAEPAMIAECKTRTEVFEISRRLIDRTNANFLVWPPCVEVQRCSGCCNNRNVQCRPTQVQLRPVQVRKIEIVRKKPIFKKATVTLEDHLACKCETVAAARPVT

[4] = molecular target: T2, recombinant human PDGF-BB; test: competition ELISA: blocks biotin-hPDGF-BB binding to coated hPDGF-Rβ-Fc
Experimental: Plates were then washed four times with wash buffer (TBS, 0.05% Tween-20) and blocked with Superblock blocking buffer (Thermo Scientific, cat#37535). During the blocking step, supernatants, antibodies, benchmark compounds or DVD-Ig were diluted in assay diluent (10% Superblock containing 0.05% surfactamps) and an eight point titration of each sample molecule was performed. […] Following incubation, plates were washed four times with wash buffer. Detection reagent Streptavidin-polyHRP-40 (Fitzgerald, cat#65r-s104phrp) was diluted in assay diluent and added to plates (50 μL) for 45 minutes at 25° C. with shaking. Plates were washed four times with wash buffer and developed with the addition of Enhanced K-blue TMB substrate (Neogen, cat#308177). The reaction was stopped with 2N sulfuric acid (VWR, cat# BDH3500-1) and the absorbance was read at 450 nm-570 nm. […] Data was analyzed using Softmax Pro 4.8 software and IC₅₀ values calculated using a sigmoidal dose response (variable slope) fit in GraphPad Prism 5.

[5] = molecular target: recombinant human PDGF-BB (human, UniProt P01127 82-190); test: cell-based or functional assay; remark: listed apart in the source
recombinant rat PDGF-BB = recombinant rat PDGF-BB (rat, UniProt Q05028 74-182); test: cell-based or functional assay
[6] = molecular target: recombinant murine PDGF-BB (mouse, UniProt P31240 82-190); test: cell-based or functional assay
[7] = molecular target: T3, recombinant cynomolgus PDGF-BB (cynomolgus monkey, UniProt P01127 82-190 (human entry), limits assumed); test: cell-based or functional assay
T3 chain: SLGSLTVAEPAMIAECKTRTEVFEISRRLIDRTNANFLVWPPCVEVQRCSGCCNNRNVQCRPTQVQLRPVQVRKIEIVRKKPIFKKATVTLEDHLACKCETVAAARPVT

[8] = molecular target: recombinant human PDGF-BB (human, UniProt P01127 82-190); test: cell-based or functional assay; remark: listed apart in the source

T1 sequence (P15692 other isoform, or with tags, fused parts or gaps limits assumed): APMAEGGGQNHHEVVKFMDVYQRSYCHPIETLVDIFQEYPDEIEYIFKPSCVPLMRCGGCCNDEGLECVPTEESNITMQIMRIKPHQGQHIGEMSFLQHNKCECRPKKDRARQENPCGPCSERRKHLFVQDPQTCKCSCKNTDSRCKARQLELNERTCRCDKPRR
Sequence of recombinant murine PDGF-BB (P31240 82-190 limits assumed): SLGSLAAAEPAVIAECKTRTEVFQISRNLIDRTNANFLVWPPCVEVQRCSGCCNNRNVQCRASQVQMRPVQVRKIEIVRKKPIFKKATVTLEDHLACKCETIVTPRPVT
Sequence of recombinant rat PDGF-BB (Q05028 74-182 limits assumed): as the sequence (P31240 82-190 limits assumed) above, with I83V, I102V counted along it

B1: 4G8.3-GS-9E8.4 DVD-Ig (PR-1564010) (bispecific antibody, human IgG1, kappa, L234A L235A)
heavy: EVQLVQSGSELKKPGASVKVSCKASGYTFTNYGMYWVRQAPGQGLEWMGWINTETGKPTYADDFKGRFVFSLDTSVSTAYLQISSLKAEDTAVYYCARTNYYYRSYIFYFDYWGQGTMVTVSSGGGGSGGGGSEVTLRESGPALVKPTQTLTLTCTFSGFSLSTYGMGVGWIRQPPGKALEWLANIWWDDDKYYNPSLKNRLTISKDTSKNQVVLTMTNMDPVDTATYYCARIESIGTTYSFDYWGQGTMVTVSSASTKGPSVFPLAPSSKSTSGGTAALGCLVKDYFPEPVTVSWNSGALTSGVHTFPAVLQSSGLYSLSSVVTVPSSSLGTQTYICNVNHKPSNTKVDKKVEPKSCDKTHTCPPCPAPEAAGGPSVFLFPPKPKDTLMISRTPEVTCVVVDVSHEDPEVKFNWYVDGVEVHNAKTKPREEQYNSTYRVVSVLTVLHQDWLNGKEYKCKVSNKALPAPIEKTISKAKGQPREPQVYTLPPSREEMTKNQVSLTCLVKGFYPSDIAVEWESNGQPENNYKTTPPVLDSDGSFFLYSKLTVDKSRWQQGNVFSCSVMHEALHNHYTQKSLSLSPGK
light: DTVLTQSPATLSLSPGERATLSCRASESVSTHMHWYQQKPGQAPRLLIYGASNLESGVPARFSGSGSGTDFTLTISSLEPEDFAVYFCQQSWNDPFTFGQGTKLEIKRGGSGGGGSGEFVLTQSPGTLSLSPGERATLSCERSSGDIGDSYVSWYQQKPGQAPRLVIYADDQRPSGIPDRFSGSGSGTDFTLTISRLEPEDFAVYYCQSYDINIDIVFGGGTKVEIKGTVAAPSVFIFPPSDEQLKSGTASVVCLLNNFYPREAKVQWKVDNALQSGNSQESVTEQDSKDSTYSLSSTLTLSKADYEKHKVYACEVTHQGLSSPVTKSFNRGEC
notes: DVD-Ig, outer hBDB-4G8.3 (VEGF), inner hBDI-9E8.4 (PDGF); IgG1 L234A, L235A / kappa
IC50 [1]: 0.126 nM | HMVEC-d hVEGF165 Potency IC50 [2]: 0.096 nM

B4: 4G8.3-SL-9E8.4 DVD-Ig (PR-1564012) (bispecific antibody, human IgG1, kappa, L234A L235A)
heavy: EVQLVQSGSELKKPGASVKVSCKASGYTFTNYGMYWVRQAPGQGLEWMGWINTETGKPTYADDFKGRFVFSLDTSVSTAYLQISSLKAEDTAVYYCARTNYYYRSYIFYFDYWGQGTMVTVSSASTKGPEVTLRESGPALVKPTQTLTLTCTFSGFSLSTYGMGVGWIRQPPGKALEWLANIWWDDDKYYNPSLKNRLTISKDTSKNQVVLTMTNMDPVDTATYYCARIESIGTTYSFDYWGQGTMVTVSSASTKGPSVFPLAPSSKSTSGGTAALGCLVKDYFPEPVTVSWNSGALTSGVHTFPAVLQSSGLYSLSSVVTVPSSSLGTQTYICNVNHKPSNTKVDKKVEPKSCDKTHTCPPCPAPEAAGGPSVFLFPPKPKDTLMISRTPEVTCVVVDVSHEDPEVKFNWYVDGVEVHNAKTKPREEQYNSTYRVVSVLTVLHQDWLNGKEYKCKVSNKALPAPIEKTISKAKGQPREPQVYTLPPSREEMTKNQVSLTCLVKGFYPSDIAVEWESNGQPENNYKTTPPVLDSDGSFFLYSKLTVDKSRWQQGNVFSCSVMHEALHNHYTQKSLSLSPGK
light: DTVLTQSPATLSLSPGERATLSCRASESVSTHMHWYQQKPGQAPRLLIYGASNLESGVPARFSGSGSGTDFTLTISSLEPEDFAVYFCQQSWNDPFTFGQGTKLEIKRTVAAPSVFIFPPEFVLTQSPGTLSLSPGERATLSCERSSGDIGDSYVSWYQQKPGQAPRLVIYADDQRPSGIPDRFSGSGSGTDFTLTISRLEPEDFAVYYCQSYDINIDIVFGGGTKVEIKGTVAAPSVFIFPPSDEQLKSGTASVVCLLNNFYPREAKVQWKVDNALQSGNSQESVTEQDSKDSTYSLSSTLTLSKADYEKHKVYACEVTHQGLSSPVTKSFNRGEC
notes: as for B1
IC50 [1]: 0.086 nM | NIH-3T3 hPDGF-BB Potency IC50 [5]: 0.365 nM

B7: 9E10.1_GS_CL-33675 anti-VEGF-A/anti-PDGF-BB DVD-Ig (PR-1610561) (bispecific antibody, human IgG1, kappa, L234A L235A)
heavy: EIQLVQSGSELKKPGASVKVSCKASGYTFTNYGMYWVKQAPGQGLEYMGWIDTETGRPTYADDFKGRFVFSLDTSVSTAYLQISSLKAEDTAVYFCARWSGDTTGIRGPWFAYWGQGTLVTVSSGGGGSGGGGSEVTLRESGPALVKPTQTLTLTCTFSGFSLSTYGMGVGWIRQPPGKALEWLANIWWDDDKYYNPSLKNRLTISKDTSKNQVVLTMTNMDPVDTATYYCARIESSGPKYSFDYWGQGTMVTVSSASTKGPSVFPLAPSSKSTSGGTAALGCLVKDYFPEPVTVSWNSGALTSGVHTFPAVLQSSGLYSLSSVVTVPSSSLGTQTYICNVNHKPSNTKVDKKVEPKSCDKTHTCPPCPAPEAAGGPSVFLFPPKPKDTLMISRTPEVTCVVVDVSHEDPEVKFNWYVDGVEVHNAKTKPREEQYNSTYRVVSVLTVLHQDWLNGKEYKCKVSNKALPAPIEKTISKAKGQPREPQVYTLPPSREEMTKNQVSLTCLVKGFYPSDIAVEWESNGQPENNYKTTPPVLDSDGSFFLYSKLTVDKSRWQQGNVFSCSVMHEALHNAYTQKSLSLSPGK
light: DIRMTQSPSSLSASVGDRVTIECLASEDIYSDLAWYQQKPGKSPKLLIYNANGLQNGVPSRFSGSGSGTDYSLTISSLQPEDVATYFCQQYNYFPGTFGQGTKLEIKGGSGGGGSGGEIVLTQSPGTLSLSPGERATLSCRASSGSIWYSFVSWYQQKPGQAPRLLIYADDQRASGIPDRFSGSGSGTDFTLTISRLEPEDFAVYYCQSYGINIDVVFGGGTKVEIKRTVAAPSVFIFPPSDEQLKSGTASVVCLLNNFYPREAKVQWKVDNALQSGNSQESVTEQDSKDSTYSLSSTLTLSKADYEKHKVYACEVTHQGLSSPVTKSFNRGEC
Potency IC50 (nM) ratPDGF-BB (NIH-3T3 proliferation) (recombinant rat PDGF-BB): 0.038 nM | Potency IC50 (nM) mPDGF-BB (NIH-3T3 proliferation) [6]: 0.032 nM | Potency IC50 (nM) cynoPDGF-BB (NIH-3T3 proliferation) [7]: 0.035 nM | Co-incubation Potency IC50 (nM) hPDGF-BB (NIH-3T3 proliferation, DVD-Ig pre-incubated with excess hVEGF165) [8]: 0.04 nM

B8: 4G8.3-LS-9E8.4 DVD-Ig (PR-1564013) (bispecific antibody, human IgG1, kappa, L234A L235A)
heavy: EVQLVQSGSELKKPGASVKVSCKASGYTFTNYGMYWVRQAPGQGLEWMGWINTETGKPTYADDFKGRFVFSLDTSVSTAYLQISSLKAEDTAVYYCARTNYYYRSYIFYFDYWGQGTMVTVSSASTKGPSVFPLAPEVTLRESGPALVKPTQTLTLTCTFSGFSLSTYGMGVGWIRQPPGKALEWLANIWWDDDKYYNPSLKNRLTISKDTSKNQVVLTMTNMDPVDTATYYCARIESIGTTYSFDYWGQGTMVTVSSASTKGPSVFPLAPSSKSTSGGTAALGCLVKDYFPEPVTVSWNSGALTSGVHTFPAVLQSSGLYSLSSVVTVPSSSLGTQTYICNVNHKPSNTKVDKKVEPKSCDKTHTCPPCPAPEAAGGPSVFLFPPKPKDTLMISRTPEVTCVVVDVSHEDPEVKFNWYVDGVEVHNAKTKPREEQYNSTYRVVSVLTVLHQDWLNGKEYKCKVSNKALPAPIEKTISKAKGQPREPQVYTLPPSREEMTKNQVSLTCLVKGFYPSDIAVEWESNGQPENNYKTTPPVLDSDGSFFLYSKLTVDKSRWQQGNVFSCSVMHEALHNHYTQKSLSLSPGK
light: DTVLTQSPATLSLSPGERATLSCRASESVSTHMHWYQQKPGQAPRLLIYGASNLESGVPARFSGSGSGTDFTLTISSLEPEDFAVYFCQQSWNDPFTFGQGTKLEIKRTVAAPEFVLTQSPGTLSLSPGERATLSCERSSGDIGDSYVSWYQQKPGQAPRLVIYADDQRPSGIPDRFSGSGSGTDFTLTISRLEPEDFAVYYCQSYDINIDIVFGGGTKVEIKGTVAAPSVFIFPPSDEQLKSGTASVVCLLNNFYPREAKVQWKVDNALQSGNSQESVTEQDSKDSTYSLSSTLTLSKADYEKHKVYACEVTHQGLSSPVTKSFNRGEC
notes: as for B1
IC50 [1]: 0.092 nM | HMVEC-d hVEGF165 Potency IC50 [2]: 0.06 nM | NIH-3T3 hPDGF-BB Potency IC50 [5]: 0.152 nM

The next lines start with the values.

Phospho-Tyr751/hPDGF-BB Neutralization [3]: 1.06 nM | huPDGF-BB Neutralization Potency (nM) in NIH-3T3 Cells [3]: > 5 nM | IC50 [4]: > 10 nM
B2: BDI-1E1-D5 (antibody, IgG2b, V domains shown)
VH: EVKLQQSGDELVRPGASVKMSCKASGYTFTDYVMHWVKQSPGQGLEWIGTIIPLIDTTSYNQKFKGKATLTADKSSNTAYMELSRLTSEDSAVYYCARTSPYYYSSYDVMDAWGQGASVTVSS
VL: NIQLTQSPSLLSASVGDRVTLSCKGSQNINNYLAWYQQKLGEAPKLLIYKTNNLQTGIPSRFSGCGSGTDYTLTISSLHSEDLATYYCYQYDNGYTFGAGTKLELK
notes: Rat hybridoma monoclonal antibody

Phospho-Tyr751/hPDGF-BB Neutralization [3]: 1.62 nM | huPDGF-BB Neutralization Potency (nM) in NIH-3T3 Cells [3]: > 5 nM | IC50 [4]: 3.23 nM
B3: BDI-6A3-A9 (antibody, IgG2b, V domains shown)
VH: EVQLVESGGGLVQPGRSLKFSCAASGFSFSDSAMAWVRQAPKKGLEWVATIIYDGSGTYYRDSVKGRFTISRDNAKSTLYLQMDSLRSEDTATYYCARLGFNYGNYGYYVMDAWGQGASVTVSS
VL: QFTLTQPKSVSGSLRNTITIPCERSSGDIGDSYVSWYQQHLGRPPINVIFADDQRPSEVSDRFSGSIDSSSNSASLTITNLQMDDEADYFCQSYDSNIDINIVFGGGTKLTVL
notes: as for B2

Potency IC50 (nM) ratPDGF-BB (NIH-3T3 proliferation) (recombinant rat PDGF-BB): 0.994 nM | Potency IC50 (nM) mPDGF-BB (NIH-3T3 proliferation) [6]: 0.15 nM | Potency IC50 (nM) cynoPDGF-BB (NIH-3T3 proliferation) [7]: 0.144 nM | Co-incubation Potency IC50 (nM) hPDGF-BB (NIH-3T3 proliferation, DVD-Ig pre-incubated with excess hVEGF165) [8]: 0.038 nM
B5: hVEGF 4G8.3-SL-hPDGF 9E8.4 [hu IgG1/k] mut(234, 235) H435A (PR-1569579) (bispecific antibody)
heavy: EVQLVQSGSELKKPGASVKVSCKASGYTFTNYGMYWVRQAPGQGLEWMGWINTETGKPTYADDFKGRFVFSLDTSVSTAYLQISSLKAEDTAVYYCARTNYYYRSYIFYFDYWGQGTMVTVSSASTKGPEVTLRESGPALVKPTQTLTLTCTFSGFSLSTYGMGVGWIRQPPGKALEWLANIWWDDDKYYNPSLKNRLTISKDTSKNQVVLTMTNMDPVDTATYYCARIESIGTTYSFDYWGQGTMVTVSSASTKGPSVFPLAPSSKSTSGGTAALGCLVKDYFPEPVTVSWNSGALTSGVHTFPAVLQSSGLYSLSSVVTVPSSSLGTQTYICNVNHKPSNTKVDKKVEPKSCDKTHTCPPCPAPEAAGGPSVFLFPPKPKDTLMISRTPEVTCVVVDVSHEDPEVKFNWYVDGVEVHNAKTKPREEQYNSTYRVVSVLTVLHQDWLNGKEYKCKVSNKALPAPIEKTISKAKGQPREPQVYTLPPSREEMTKNQVSLTCLVKGFYPSDIAVEWESNGQPENNYKTTPPVLDSDGSFFLYSKLTVDKSRWQQGNVFSCSVMHEALHNAYTQKSLSLSPGK
light: B4 light

Phospho-Tyr751/hPDGF-BB Neutralization [3]: 0.923 nM | huPDGF-BB Neutralization Potency (nM) in NIH-3T3 Cells [3]: 0.741 nM | IC50 [4]: 1.06 nM
B6: BDI-5G2-F9 (antibody, IgG2b, V domains shown)
VH: QVTLKESGPGILQPSQTLSLTCTFSGFSLSTFGMGVGWIRQPSGKGLEWLANIWWDDDKYYNPSLKNRLTISKDTSNSQAFLEITNVDTADTATYYCARISTGISSYYVMDAWGQGASVTVSS
VL: QFTLTQPKSVSGSLRSTITIPCERSSGDIGDTYVSWYQQHLGRPPINVIYGNDQRPSEVSDRFSGSIDSSSNSASLTITNLQMDDEADYFCQSYDSDIDIVFGGGTKLTVL
notes: as for B2
